Like-named read-outs stand apart in the source and are kept apart here. Where no end group is shown, it is not given here. [ ]: non-standard residue; d: D form. pS = N[C@@H](COP(=O)(O)O)C(=O)O
Tests used:
[1] = molecular target: HLA-DR1 (HLA-DRβ1*0101) purified from the EBV-transformed homozygous B lymphoblastoid cell line LG2 (human); assay: radioligand binding
[2] = system: pMART-1-specific CD4+ T cell line D7; assay: Recognition of titrated peptides on HLA-DR1+ APC by CD4+ T cell line D7; format: cell-based, human; details: T cell line D7, peptide 25 μM, ELISA; Fig. 4b
[3] = system: pMART-1-specific CD4+ T cell clone D7-F6; assay: Recognition of peptide-pulsed HLA-DR1+ EBV-B cells by CD4+ T cell clone D7-F6; format: cell-based, human; details: ELISA
[4] = molecular target: HLA-DR1 (HLA-DRβ1*0101) purified from the EBV-transformed homozygous B lymphoblastoid cell line LG2 (human); assay: radioligand binding; remark: listed apart in the source

With “pMART-1_(100–116) phosphopeptide (from UniProt Q16655 100-116)” the IC50 [1] was 327 nM.

“pMART-1_(98–109) phosphopeptide (from UniProt Q16655 98-109)” gave a fold decrease in other [1] of less than 2 fold.

With PKYVKQNTLKLAT [HA307-319] the “GM-CSF secretion from T cells + APC + peptide” value (“GM-CSF secretion” below) [2] was 0.7 ng/mL, the “GM-CSF secretion” value ([3]; clone D7-F6, HLA-DR1+ 2048-EBV cells pre-pulsed with peptide 25 μM, overnight, Fig. 3) was less than 15 pg/mL and the “GM-CSF secretion” value ([3]; clone D7-F6, peptide 15 μM, Fig. 4a) was less than 20 pg/mL.

B1: pMART-1_(100–111) phosphopeptide (peptide)
peptide: APPAYEKL[pS]AEQ
B1 gave an IC50 [4] of 459 nM.

B2: pMART-1_(100–114) phosphopeptide (peptide)
peptide: APPAYEKL[pS]AEQSPP
B2 showed an IC50 [4] of 102 nM.

B3: pMART-1_(100–115) phosphopeptide (peptide)
peptide: APPAYEKL[pS]AEQSPPP
With B3 the IC50 [4] was 142 nM.
